Measurements: patent US20130079280A1 (MEDLMMUNE, published 2013)
Where two headings read alike, the source gives them in different places. One block for each binder: values may come before it.

Experiments:
[1] = target: T1, human TRAIL R2-Fc fusion protein (human, UniProt O14763 54-182, limits assumed, biotinylated in the competition ELISA of Example 3); experiment: competition ELISA; plate coated with A9(1C12), 0.75 nM biotinylated TRAIL R2-Fc
T1 construct: also called biotinylated TRAIL R2-Fc; soluble TRAIL R2-Fc; not shown: Fc part
Procedure: Plates were blocked with PBS 0.1% Tween 20+10 mg/ml BSA. […] Absorbance was read at 450 nm.

[2] = target: T1, human TRAIL R2-Fc fusion protein; experiment: competition ELISA: plate coated with F4 mod 1, human TRAIL R2-Fc, monomer as competitor
[3] = target: T1, human TRAIL R2-Fc fusion protein; experiment: competition ELISA; F4 mod 1 coated plate, human TRAIL R2-Fc
[4] = target: T1, human TRAIL R2-Fc fusion protein; experiment: competition ELISA: plate coated with F4 mod 1, 0.75 nM human TRAIL R2-Fc, purified monomer as competitor
[5] = target: T2, Human CD40L, recombinant (E. coli produced) (human, UniProt P29965 113-261, limits assumed, His-tagged (capture ELISA) or biotinylated (AlphaScreen)); experiment: capture ELISA: His-tagged construct captured from E. coli media on anti-His antibody, His-tagged HuCD40L preincubated with biotinylated anti-His antibody titrated, streptavidin-HRP/TMB
T2 construct: also called HuCD40L; huCD40L
T2 sequence (looked up): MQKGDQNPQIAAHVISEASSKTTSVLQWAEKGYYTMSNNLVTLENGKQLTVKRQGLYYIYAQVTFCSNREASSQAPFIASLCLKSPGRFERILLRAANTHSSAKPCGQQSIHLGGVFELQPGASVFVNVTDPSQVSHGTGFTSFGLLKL
Procedure: (§1) A 96-well MaxiSorb plate was coated with Qiagen anti-His antibody at 2 μg/ml overnight. The coated plate was blocked with PBS containing 0.1% v/v Tween-20 and 4% w/v skim milk powder (PBST 4% milk) for 1.5 hours. The coated plate was washed with PBST and diluted bacterial media (diluted 30-fold) containing soluble expressed proteins was added and plates were incubated at room temperature for 2 hours. […] The absorbance was read at 450 nm.

[6] = target: T3, cynomolgus TRAIL R2-Fc (cynomolgus monkey (Macaca fascicularis)); experiment: competition ELISA: plate coated with F4 mod 1, cyno TRAIL R2-Fc, monomer as competitor
T3 construct: the ELISAs used the Fc fusion; also called cyno TRAIL R2-Fc; cyno TRAIL-R2-Fc

[7] = target: T3, cynomolgus TRAIL R2-Fc; experiment: competition ELISA; F4 mod 1 coated plate, cyno TRAIL R2-Fc
[8] = target: T3, cynomolgus TRAIL R2-Fc; experiment: competition ELISA: plate coated with F4 mod 1, 0.75 nM cyno TRAIL R2-Fc, purified monomer as competitor
[9] = target: T4, TRAIL R2, recombinant (format not stated) (human, UniProt O14763 54-182, limits assumed, biotinylated in the ELISAs of paragraph 539 and paragraph 556); experiment: capture ELISA; Tn3 captured on anti-His, biotinylated TRAIL R2
T4 construct: also called biotinylated TRAIL R2; TRAIL R2 biotin
Procedure: as §1

[10] = target: T1, human TRAIL R2-Fc fusion protein; experiment: capture ELISA: His-tagged construct captured from E. coli media on anti-His antibody, biotinylated TRAIL R2 (axis: TrailR2-Fc) titrated, streptavidin-HRP/TMB
Procedure: as §1

[11] = target: T5, human TRAIL R2 on the cell surface (H2122, Colo205, Jurkat and other tumor cell lines) (human, UniProt O14763 56-440); experiment: cell-based or functional assay
[12] = target: T5, human TRAIL R2 on the cell surface …; experiment: cell-based or functional assay; remark: listed apart in the source
[13] = target: T5, human TRAIL R2 on the cell surface …; experiment: cell-based or functional assay; remark: listed apart in the source

B1: A2 (1E11), bivalent linear tandem Tn3 (designed binder)
chain: SGGGGSAIEVKDVTDTTALITWAKPWVDPPPLWGCELAYGIKDVPGDRTTIDLQQKHTAYSIGNLKPDTEYEVSLICFDPYGAKSNPAKETFTTGGGGSGGGGSGGGGSAIEVKDVTDTTALITWAKPWVDPPPLWGCELAYGIKDVPGDRTTIDLQQKHTAYSIGNLKPDTEYEVSLICFDPYGAKSNPAKETFTTGGGGSGGGGSGTLGHHHHHHHH
IC50 [1]: 0.5 nM | fold higher affinity relative to the monomeric A1 protein [1]: 30 to 40 fold | fold lower IC50 than the monomer A1 [1]: ≥ 30 fold

B2: F4, TRAIL R2-binding Tn3 monomer (designed binder)
chain: AIEVKDVTDTTALITWAKPWVDPPPLWGCELAYGIKDVPGDRTTIDLQQKHTAYSIGNLKPDTEYEVSLICFDPYGLKSRPAKETFTTGGGTLGHHHHHHHH
notes: also called clone F4; original F4
IC50 [2]: 89 nM | fold difference in binding among F4, F4 mod 1 and F4 mod 12 [3]: ≤ 6 fold | IC50 [4]: 89 nM

B3: A1 (1E11), monovalent TRAIL R2-specific Tn3 scaffold (designed binder)
chain: AIEVKDVTDTTALITWAKPWVDPPPLWGCELAYGIKDVPGDRTTIDLQQKHTAYSIGNLKPDTEYEVSLICFDPYGAKSNPAKETFTTGGGTLGHHHHHHHH
notes: His-tagged monomer expressed in E. coli; also called 1E11 monomer
IC50 [1]: 16 nM | binding result [5]: no binding (tested: 5.00E-02 ug/ml)

More lines, main results first:

IC50 [2]: 15 nM | fold difference in binding among F4, F4 mod 1 and F4 mod 12 [3]: ≤ 6 fold | IC50 [6]: 34 nM | IC50 [4]: 15 nM | fold difference in binding between F4 mod 1 and F4 mod 12 [7]: ≤ 2 fold | IC50 [8]: 34 nM
B4: F4 mod 1, cyno cross reactive TRAIL R2-binding Tn3 monomer (designed binder)
chain: AIEVKDVTDTTALITWAKPWVDPPPLWGCELAYGIKDVPGDRTTIGLQQKHTAYSIGNLKPDTEYEVSLICFDPYGLKSRPAKETFTTGGGTLGHHHHHHHH
notes: F4 with a D to G mutation two amino acids before the DE loop; also called F4 mod 1 monomer

binding result [9]: no binding | binding result [10]: no binding (tested: 0.2 ug/ml)
B5: 79, monovalent human CD40L-specific Tn3 (designed binder)
chain: IEVKDVTDTTALITWIPPHNADSSIIGCELTYGIKDVPGDRTTIDLYDVAFDYSIGNLKPDTEYEVSLICDTFYGFDSNPAKETFTTGGGTLGHHHHHHHH
notes: 8xHis-tagged, captured from E. coli media; also called 79 (79); clone 79

IC50 [2]: 22 nM | fold difference in binding among F4, F4 mod 1 and F4 mod 12 [3]: ≤ 6 fold | IC50 [6]: 50 nM | fold difference in binding between F4 mod 1 and F4 mod 12 [7]: ≤ 2 fold
B6: F4 mod 12, germline engineered cyno cross reactive TRAIL R2-binding Tn3 monomer (designed binder)
chain: SQIEVKDVTDTTALITWAKPWVDPPPLWGCELTYGIKDVPGDRTTIGLQQKHNQYSIGNLKPDTEYEVSLICFDPYGLKSRPAKETFTTGLGTLGHHHHHHHH
notes: also called F4 mod 12 monomer

Maximum Inhibition %, H2122 [11]: 91% | Maximum Inhibition %, H2122 [13]: 91% | IC50 [1]: 0.4 nM | fold higher affinity relative to the monomeric A1 protein [1]: 30 to 40 fold | fold lower IC50 than the monomer A1 [1]: ≥ 30 fold
B7: A3 (1E11), tetravalent linear tandem Tn3 (designed binder)
chain: SGGGGSAIEVKDVTDTTALITWAKPWVDPPPLWGCELAYGIKDVPGDRTTIDLQQKHTAYSIGNLKPDTEYEVSLICFDPYGAKSNPAKETFTTGGGGSGGGGSGGGGSAIEVKDVTDTTALITWAKPWVDPPPLWGCELAYGIKDVPGDRTTIDLQQKHTAYSIGNLKPDTEYEVSLICFDPYGAKSNPAKETFTTGGGGSGGGGSGGGGSAIEVKDVTDTTALITWAKPWVDPPPLWGCELAYGIKDVPGDRTTIDLQQKHTAYSIGNLKPDTEYEVSLICFDPYGAKSNPAKETFTTGGGGSGGGGSGGGGSAIEVKDVTDTTALITWAKPWVDPPPLWGCELAYGIKDVPGDRTTIDLQQKHTAYSIGNLKPDTEYEVSLICFDPYGAKSNPAKETFTTGGGGSGGGGSGTLGHHHHHHHH
potency in inhibiting H2122 cell viability relative to A9 [12]: ~150 fold
